“And” between values parts separate entries of the source, which are not always exact repeats. Equal values may be shown once.

The results in this text go back to article PMC2115445.

Assay [1] has as its target human erythrocyte ankyrin (human) (UniProt P16157). Briefly: co-sedimentation.
For assay [2] the target is unchanged. Briefly: pull-down.
Assay [3] concerns the target Na,K-ATPase (alpha-beta heterodimer) of dog kidney membranes (dog (endogenous in canine kidney)) (UniProt P50997). Briefly: co-sedimentation.

human erythrocyte ankyrin (human), sequence (P16157 whole entry): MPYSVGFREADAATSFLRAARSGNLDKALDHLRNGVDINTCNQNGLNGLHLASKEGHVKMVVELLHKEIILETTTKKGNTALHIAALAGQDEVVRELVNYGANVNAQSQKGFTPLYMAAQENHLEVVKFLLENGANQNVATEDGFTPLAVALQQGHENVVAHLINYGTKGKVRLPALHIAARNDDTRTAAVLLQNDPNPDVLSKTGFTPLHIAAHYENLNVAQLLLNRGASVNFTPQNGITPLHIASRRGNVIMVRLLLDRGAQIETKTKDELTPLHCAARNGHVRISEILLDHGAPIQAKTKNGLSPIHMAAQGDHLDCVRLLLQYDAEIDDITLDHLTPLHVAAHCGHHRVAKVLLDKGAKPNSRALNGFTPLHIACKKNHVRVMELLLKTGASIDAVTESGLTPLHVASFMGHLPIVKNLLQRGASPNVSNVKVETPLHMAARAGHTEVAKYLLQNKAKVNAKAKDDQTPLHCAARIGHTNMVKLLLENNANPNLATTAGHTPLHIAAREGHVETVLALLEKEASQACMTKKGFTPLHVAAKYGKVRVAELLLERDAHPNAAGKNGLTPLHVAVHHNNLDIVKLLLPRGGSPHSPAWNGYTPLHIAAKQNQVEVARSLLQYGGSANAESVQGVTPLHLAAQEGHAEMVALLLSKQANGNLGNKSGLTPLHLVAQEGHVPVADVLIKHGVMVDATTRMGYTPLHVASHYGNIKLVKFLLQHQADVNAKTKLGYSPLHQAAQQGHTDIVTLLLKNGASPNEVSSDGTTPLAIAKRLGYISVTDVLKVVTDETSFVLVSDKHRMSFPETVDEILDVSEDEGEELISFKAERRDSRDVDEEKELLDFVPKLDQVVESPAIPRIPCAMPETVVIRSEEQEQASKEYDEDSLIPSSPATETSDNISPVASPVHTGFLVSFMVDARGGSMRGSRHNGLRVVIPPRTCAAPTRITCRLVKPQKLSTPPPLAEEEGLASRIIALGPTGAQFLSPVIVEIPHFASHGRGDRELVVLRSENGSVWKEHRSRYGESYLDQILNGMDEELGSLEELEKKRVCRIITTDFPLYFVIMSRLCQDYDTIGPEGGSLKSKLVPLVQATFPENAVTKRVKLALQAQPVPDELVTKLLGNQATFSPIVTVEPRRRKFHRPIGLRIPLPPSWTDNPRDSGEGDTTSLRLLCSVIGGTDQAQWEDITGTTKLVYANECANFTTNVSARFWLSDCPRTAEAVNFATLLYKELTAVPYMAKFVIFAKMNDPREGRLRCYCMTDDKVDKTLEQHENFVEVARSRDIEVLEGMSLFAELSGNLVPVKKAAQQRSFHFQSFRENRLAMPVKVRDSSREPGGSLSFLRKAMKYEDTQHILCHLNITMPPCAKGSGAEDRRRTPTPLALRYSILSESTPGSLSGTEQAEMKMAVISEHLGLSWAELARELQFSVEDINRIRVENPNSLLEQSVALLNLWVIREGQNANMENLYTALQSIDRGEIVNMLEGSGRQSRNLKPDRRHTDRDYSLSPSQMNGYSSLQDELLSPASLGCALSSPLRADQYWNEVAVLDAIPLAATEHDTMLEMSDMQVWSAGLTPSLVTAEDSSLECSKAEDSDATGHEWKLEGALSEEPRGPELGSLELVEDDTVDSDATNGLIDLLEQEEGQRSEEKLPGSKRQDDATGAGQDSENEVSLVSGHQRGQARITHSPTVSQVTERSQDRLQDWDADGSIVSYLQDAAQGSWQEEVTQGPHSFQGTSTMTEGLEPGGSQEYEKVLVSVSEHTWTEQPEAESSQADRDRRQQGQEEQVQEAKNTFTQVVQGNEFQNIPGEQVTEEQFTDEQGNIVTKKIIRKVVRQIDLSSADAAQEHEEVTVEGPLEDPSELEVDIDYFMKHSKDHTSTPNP

On to “43-kD cytoplasmic domain of human erythrocyte band 3 (domain or fragment)”, for which the inhibition constant (Ki) (usually the dissociation constant of the complex between target and ligand, obtained from inhibition or displacement) in assay [1] came out at 3500 nM. With “Na,K-ATPase (alpha-beta heterodimer) of dog kidney membranes (from UniProt P50997 1-1021; P06583 1-303) (complex)”, in assay [2], the fold bound to immobilized ankyrin against immobilized BSA is 17 fold. In the case of “human erythrocyte ankyrin (from UniProt P16157 1-1881) (natural protein)”, in assay [3], the Kd (commonly the equilibrium constant for the complex coming apart) was 2590 nM and 2570 nM; the stoichiometry N (molecules of Na,K-ATPase per ankyrin) was in the range of 3.5 to 4.8. For the same substance, in assay [3] (scale: molecules of Na,K-ATPase alpha-beta heterodimer per ankyrin), the stoichiometry N (as a rule, the number of molecules, sites or subunits per partner or assembly) is 2.93 and 5.05.
